Experiments:
Assay in all cases: HPLC of oxidised product, Sf9 microsomes
Format in all cases: biochemical, Homo sapiens
Conditions in all cases: apparent Km, NAD+-dependent oxidation, 90 mM potassium phosphate pH 7.3, 40 mM KCl, 37 °C
[1] = substrate: CCCCC[C@H](O)/C=C/C=C\CCCCCCCC(=O)O
Text: (§1) HPLC of oxidised product, Sf9 microsomes on human DHRS9 (SDR9C4)

[2] = substrate: CCCCC/C=C\C[C@H](O)/C=C/C=C\C/C=C\CCCC(=O)O
Text: as §1

[3] = substrate: CCCCC[C@H](O)/C=C/C=C\C/C=C\C/C=C\CCCC(=O)O
Text: as §1

[4] = substrate: CCCCC/C=C\C=C\[C@@H](O)CCCCCCCC(=O)O
Text: as §1

[5] = substrate: CCCCC/C=C\C[C@@H](O)/C=C/C=C/C=C\[C@@H](O)CCCC(=O)O
Text: as §1

[6] = substrate: CCCCC[C@H](O)/C=C/C=C\C=C\C=C\[C@@H](O)[C@@H](O)CCCC(=O)O
Text: as §1

[7] = substrate: CC/C=C\C[C@H](O)/C=C/C=C\C=C\C=C\[C@@H](O)[C@@H](O)C/C=C\CCC(=O)O
Text: as §1

[8] = substrate: CCCCC[C@H](O)/C=C/C=C\CCCCCCCC(=O)O; remark: listed apart in the source
Text: (§2) HPLC of oxidised product, Sf9 microsomes on human RDH16 (SDR9C8)

[9] = substrate: CCCCC/C=C\C[C@H](O)/C=C/C=C\C/C=C\CCCC(=O)O; remark: listed apart in the source
Text: as §2

[10] = substrate: CCCCC[C@H](O)/C=C/C=C\C/C=C\C/C=C\CCCC(=O)O; remark: listed apart in the source
Text: as §2

[11] = substrate: CCCCC/C=C\C=C\[C@@H](O)CCCCCCCC(=O)O; remark: listed apart in the source
Text: as §2

[12] = substrate: CCCCC[C@H](O)/C=C/C=C\CCCCCCCC(=O)O; remark: listed apart in the source
Text: (§3) HPLC of oxidised product, Sf9 microsomes on human HSD17B6 (SDR9C6)

[13] = substrate: CCCCC/C=C\C[C@H](O)/C=C/C=C\C/C=C\CCCC(=O)O; remark: listed apart in the source
Text: as §3

[14] = substrate: CCCCC[C@H](O)/C=C/C=C\C/C=C\C/C=C\CCCC(=O)O; remark: listed apart in the source
Text: as §3

[15] = substrate: CCCCC/C=C\C=C\[C@@H](O)CCCCCCCC(=O)O; remark: listed apart in the source
Text: as §3

B1: human DHRS9 (SDR9C4) (Homo sapiens) (protein)
chain: RKGKLKIEDITDKYIFITGCDSGFGNLAARTFDKKGFHVIAACLTESGSTALKAETSERLRTVLLDVTDPENVKRTAQWVKNQVGEKGLWGLINNAGVPGVLAPTDWLTLEDYREPIEVNLFGLISVTLNMLPLVKKAQGRVINVSSVGGRLAIVGGGYTPSKYAVEGFNDSLRRDMKAFGVHVSCIEPGLFKTNLADPVKVIEKKLAIWEQLSPDIKQQYGEGYIEKSLDKLKGNKSYVNMDLSPVVECMDHALTSLFPKTHYAAGKDAKIFWIPLSHMPAALQDFLLLKQKAELANPKAV
notes: recombinant, baculovirus-infected Sf9 cell microsomes
Km [1]: 0.46 ± 0.19 µM | Vmax [1]: 0.00011 µmol/min | Km [2]: 0.43 ± 0.16 µM | Vmax [2]: 0.00022 µmol/min | Km [3]: 0.36 ± 0.18 µM | Vmax [3]: 0.00014 µmol/min | Km [4]: 0.57 ± 0.25 µM | Vmax [4]: 2.4e-05 µmol/min | Km [5]: 0.76 ± 0.44 µM | Vmax [5]: 0.00017 µmol/min | Km [6]: 4.6 ± 2.7 µM | Vmax [6]: 0.00023 µmol/min | Km [7]: 1.6 ± 0.5 µM | Vmax [7]: 8.5e-05 µmol/min

B2: human RDH16 (SDR9C8) (Homo sapiens) (protein)
chain: MWLYLAVFVGLYYLLHWYRERQVLSHLRDKYVFITGCDSGFGKLLARQLDARGLRVLAACLTEKGAEQLRGQTSDRLETVTLDVTKTESVAAAAQWVKECVRDKGLWGLVNNAGISLPTAPNELLTKQDFVTILDVNLLGVIDVTLSLLPLVRRARGRVVNVSSVMGRVSLFGGGYCISKYGVEAFSDSLRRELSYFGVKVAMIEPGYFKTAVTSKERFLKSFLEIWDRSSPEVKEAYGEKFVADYKKSAEQMEQKCTQDLSLVTNCMEHALIACHPRTRYSAGWDAKLLYLPMSYMPTFLVDAIMYWVSPSPAKAL
notes: as for B1
Km [8]: 0.83 ± 0.36 µM | Vmax [8]: 7.7e-06 µmol/min | Km [9]: 2.01 ± 0.64 µM | Vmax [9]: 2.15e-06 µmol/min | Km [10]: 1.39 ± 0.56 µM | Vmax [10]: 2.04e-05 µmol/min | Km [11]: 1.76 ± 0.59 µM | Vmax [11]: 1.67e-05 µmol/min

B3: human HSD17B6 (SDR9C6) (Homo sapiens) (protein)
chain: YRERQVVSHLQDKYVFITGCDSGFGNLLARQLDARGLRVLAACLTEKGAEQLRGQTSDRLETVTLDVTKMESIAAATQWVKEHVGDRGLWGLVNNAGILTPITLCEWLNTEDSMNMLKVNLIGVIQVTLSMLPLVRRARGRIVNVSSILGRVAFFVGGYCVSKYGVEAFSDILRREIQHFGVKISIVEPGYFRTGMTNMTQSLERMKQSWKEAPKHIKETYGQQYFDALYNIMKEGLLNCSTNLNLVTDCMEHALTSVHPRTRYSAGWDAKFFFIPLSYLPTSLADYILTRSWPKPAQAV
notes: as for B1
Km [12]: 0.33 ± 0.24 µM | Vmax [12]: 9e-07 µmol/min | Km [13]: 0.87 ± 0.35 µM | Vmax [13]: 7.96e-06 µmol/min | Km [14]: 1.78 ± 0.42 µM | Vmax [14]: 2.88e-06 µmol/min | Km [15]: 0.64 ± 0.28 µM | Vmax [15]: 4e-07 µmol/min

Source: paper PMC8761697, “Dehydrogenase reductase 9 (SDR9C4) and related homologs recognize a broad spectrum of lipid mediator oxylipins as substrates” (The Journal of Biological Chemistry, 2021)
